Laboratory results as given in patent US20250270167A1.

Target: GHR

Row | Substance | EC50 (chemiluminescence value, ONE-Glo, HEK293-GHR cells) [µg/mL] | Relative activity (%)
1 | Jintropin (commercially available rhGH drug, Changchun GeneScience Pharmaceutical Co., Ltd.) (from UniProt P01241) (ligand) | 0.0126 | –
2 | Polyethylene Glycol Recombinant Human Somatropin Injection (commercially available PEG-rhGH drug, Changchun GeneScience Pharmaceutical Co., Ltd.) (from UniProt P01241) (ligand) | 0.0686 | 18
3 | rhGH standard product of National Institutes for Food and Drug Control (from UniProt P01241) (ligand) | 0.012 | –
